Reference: article PMC6325607

Experiments:
[1] = molecular target: Cys149 (UniProt position 150, …); conditions: cited from earlier work
Cys149 (position 149, …) = experiment: chemical modification; conditions: 25 °C; not stated (10 mM buffers); 10 mM sodium acetate (pH 4-5), 10 mM MES (pH 5.5-6.5), 10 mM Tris/HCl (pH 7-9); Native reduced enzyme at 2.8 uM, with no substrate or NAD+ added. Cofactor occupancy is not stated.
Cys149 = conditions: cited from earlier work

B1: Glyceraldehyde-3-phosphate dehydrogenase A (GAPDH) (Escherichia coli) (protein)
chain: TIKVGINGFGRIGRIVFRAAQKRSDIEIVAINDLLDADYMAYMLKYDSTHGRFDGTVEVKDGHLIVNGKKIRVTAERDPANLKWDEVGVDVVAEATGLFLTDETARKHITAGAKKVVMTGPSKDNTPMFVKGANFDKYAGQDIVSNASCTTNCLAPLAKVINDNFGIIEGLMTTVHATTATQKTVDGPSHKDWRGGRGASQNIIPSSTGAAKAVGKVLPELNGKLTGMAFRVPTPNVSVVDLTVRLEKAATYEQIKAAVKAAAEGEMKGVLGYTEDDVVSTDFNGEVCTSVFDAKAGIALNDNFVKLVSWYDNETGYSNKVLDLIAHISK
- pKa [1]: 5.70

B2: Glyceraldehyde-3-phosphate dehydrogenase GapA (CbGAPDH) (Citrobacter sp. S-77) (protein)
chain: TIKVGINGFGRIGRIVFRAAQERSDIEIVAINDLLDADYMAYMLKYDSTHGRFNGSVEVKDGHLIVNGKKIRVTAERDPANLKWDEVGVDVVAEATGLFLTDETARKHITAGAKKVVLTGPSKDNTPMFVKGANFDKYEGQDIVSNASCTTNCLAPLAKVINDNFGIIEGLMTTVHATTATQKTVDGPSHKDWRGGRGAAQNIIPSSTGAAKAVGKVLPELNGKLTGMAFRVPTPNVSVVDLTVRLEKAASYEEIKKAIKAASEGPMKGVLGYTEDDVVSTDFNGEVCTSVFDAKAGIALNDNFVKLVSWYDNETGYSNKVLDLIAHISK
- pKa (Cys149 (position 149, …)): 5.82 ± 0.05

B3: Glyceraldehyde-3-phosphate dehydrogenase (GAPDH) (Geobacillus stearothermophilus (Bacillus stearothermophilus)) (protein)
chain: AVKVGINGFGRIGRNVFRAALKNPDIEVVAVNDLTDANTLAHLLKYDSVHGRLDAEVSVNGNNLVVNGKEIIVKAERDPENLAWGEIGVDIVVESTGRFTKREDAAKHLEAGAKKVIISAPAKNEDITIVMGVNQDKYDPKAHHVISNASCTTNCLAPFAKVLHEQFGIVRGMMTTVHSYTNDQRILDLPHKDLRRARAAAESIIPTTTGAAKAVALVLPELKGKLNGMAMRVPTPNVSVVDLVAELEKEVTVEEVNAALKAAAEGELKGILAYSEEPLVSRDYNGSTVSSTIDALSTMVIDGKMVKVVSWYDNETGYSHRVVDLAAYIASKGL
- pKa (Cys149): 5.92
